Paper PMC314469, “Protein Interaction Networks by Proteome Peptide Scanning” (PLoS Biology, 2004)
Values belong to the binder of their own block, whether it stands above or below them.

Legend:
Experiment in all cases: SPOT array
[1] = target: T1, Boi1 SH3 (BOI1_YEAST), P38041
T1 chain: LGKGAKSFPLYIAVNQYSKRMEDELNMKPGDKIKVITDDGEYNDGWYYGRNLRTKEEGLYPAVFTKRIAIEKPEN

[2] = target: T2, Yhr016c SH3 (YSC84_YEAST), P32793
T2 chain: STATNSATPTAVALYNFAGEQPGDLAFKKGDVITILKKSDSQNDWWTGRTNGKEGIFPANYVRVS

[3] = target: T3, Rvs167 SH3 (RV167_YEAST), P39743
T3 chain: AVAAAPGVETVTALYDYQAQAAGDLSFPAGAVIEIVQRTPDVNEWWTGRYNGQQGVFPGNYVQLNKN

[4] = target: T4, Yfr024 SH3 (LSB3_YEAST), P43603
T4 chain: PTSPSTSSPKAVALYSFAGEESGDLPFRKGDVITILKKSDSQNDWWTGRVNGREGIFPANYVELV

[5] = target: T5, Boi2 SH3 (BOI2_YEAST), P39969
T5 chain: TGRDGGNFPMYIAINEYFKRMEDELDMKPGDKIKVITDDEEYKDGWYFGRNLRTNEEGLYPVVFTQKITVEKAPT

B1: YCR088W 505-518 (peptide)
chain: EAAPQLPSRSSAAP
normalised SPOT signal, Boehringer light units (BLU); mean over the file's lines of this peptide [1]: 102 | normalised SPOT signal, Boehringer light units (BLU); mean over the file's lines of this peptide [2]: 93000 | normalised SPOT signal, Boehringer light units (BLU); mean over the file's lines of this peptide [3]: 23100 | normalised SPOT signal, Boehringer light units (BLU); mean over the file's lines of this peptide [4]: 55000 | normalised SPOT signal, Boehringer light units (BLU); mean over the file's lines of this peptide [5]: 20.3

B2: YDR443C 81-94 (peptide)
chain: EHKPVSPDKIGTFT
normalised SPOT signal, Boehringer light units (BLU); mean over the file's lines of this peptide [1]: 58.8 | normalised SPOT signal, Boehringer light units (BLU); mean over the file's lines of this peptide [2]: 181 | normalised SPOT signal, Boehringer light units (BLU); mean over the file's lines of this peptide [3]: 59.1 | normalised SPOT signal, Boehringer light units (BLU); mean over the file's lines of this peptide [4]: 60.4 | normalised SPOT signal, Boehringer light units (BLU); mean over the file's lines of this peptide [5]: 21.4

B3: YAR014C 249-262 (peptide)
chain: DYQPLSPPRELDPD
normalised SPOT signal, Boehringer light units (BLU); mean over the file's lines of this peptide [1]: 122 | normalised SPOT signal, Boehringer light units (BLU); mean over the file's lines of this peptide [2]: 313 | normalised SPOT signal, Boehringer light units (BLU); mean over the file's lines of this peptide [3]: 322 | normalised SPOT signal, Boehringer light units (BLU); mean over the file's lines of this peptide [4]: 506 | normalised SPOT signal, Boehringer light units (BLU); mean over the file's lines of this peptide [5]: 8.8

B4: YDR444W 379-392 (peptide)
chain: EILPQAPAKKVFES
normalised SPOT signal, Boehringer light units (BLU); mean over the file's lines of this peptide [1]: 34.7 | normalised SPOT signal, Boehringer light units (BLU); mean over the file's lines of this peptide [2]: 12.5 | normalised SPOT signal, Boehringer light units (BLU); mean over the file's lines of this peptide [3]: 65.2 | normalised SPOT signal, Boehringer light units (BLU); mean over the file's lines of this peptide [4]: 244 | normalised SPOT signal, Boehringer light units (BLU); mean over the file's lines of this peptide [5]: 21.5

B6: YDR080W 597-610 (peptide)
chain: EIAPLIPKKPALRK
normalised SPOT signal, Boehringer light units (BLU); mean over the file's lines of this peptide [1]: 110 | normalised SPOT signal, Boehringer light units (BLU); mean over the file's lines of this peptide [2]: 0 | normalised SPOT signal, Boehringer light units (BLU); mean over the file's lines of this peptide [3]: 80 | normalised SPOT signal, Boehringer light units (BLU); mean over the file's lines of this peptide [4]: 5120 | normalised SPOT signal, Boehringer light units (BLU); mean over the file's lines of this peptide [5]: 90.8

B8: YER166W 783-796 (peptide)
chain: EANPDNPKKLDLKA
normalised SPOT signal, Boehringer light units (BLU); mean over the file's lines of this peptide [1]: 79.1 | normalised SPOT signal, Boehringer light units (BLU); mean over the file's lines of this peptide [2]: 247 | normalised SPOT signal, Boehringer light units (BLU); mean over the file's lines of this peptide [3]: 45.6 | normalised SPOT signal, Boehringer light units (BLU); mean over the file's lines of this peptide [4]: 257 | normalised SPOT signal, Boehringer light units (BLU); mean over the file's lines of this peptide [5]: 7.6

B10: YIL156W 528-541 (peptide)
chain: EIPPPLPPKIMVHS
normalised SPOT signal, Boehringer light units (BLU); mean over the file's lines of this peptide [1]: 121 | normalised SPOT signal, Boehringer light units (BLU); mean over the file's lines of this peptide [2]: 14500 | normalised SPOT signal, Boehringer light units (BLU); mean over the file's lines of this peptide [3]: 135 | normalised SPOT signal, Boehringer light units (BLU); mean over the file's lines of this peptide [4]: 41400 | normalised SPOT signal, Boehringer light units (BLU); mean over the file's lines of this peptide [5]: 15.5

B11: YCR088W 471-484 (peptide)
chain: EIAPSLPSRNSIPA
normalised SPOT signal, Boehringer light units (BLU); mean over the file's lines of this peptide [1]: 92.9 | normalised SPOT signal, Boehringer light units (BLU); mean over the file's lines of this peptide [2]: 40900 | normalised SPOT signal, Boehringer light units (BLU); mean over the file's lines of this peptide [3]: 18700 | normalised SPOT signal, Boehringer light units (BLU); mean over the file's lines of this peptide [4]: 35400 | normalised SPOT signal, Boehringer light units (BLU); mean over the file's lines of this peptide [5]: 51.6

B17: YJR137C 1229-1242 (peptide)
chain: EDTPDLPQKTGIRK
normalised SPOT signal, Boehringer light units (BLU); mean over the file's lines of this peptide [1]: 24.7 | normalised SPOT signal, Boehringer light units (BLU); mean over the file's lines of this peptide [2]: 100 | normalised SPOT signal, Boehringer light units (BLU); mean over the file's lines of this peptide [3]: 14.6 | normalised SPOT signal, Boehringer light units (BLU); mean over the file's lines of this peptide [4]: 5620 | normalised SPOT signal, Boehringer light units (BLU); mean over the file's lines of this peptide [5]: 18

B18: YJR110W 189-202 (peptide)
chain: EFSPTYPSKLFVPR
normalised SPOT signal, Boehringer light units (BLU); mean over the file's lines of this peptide [1]: 53.2 | normalised SPOT signal, Boehringer light units (BLU); mean over the file's lines of this peptide [2]: 143 | normalised SPOT signal, Boehringer light units (BLU); mean over the file's lines of this peptide [3]: 69.9 | normalised SPOT signal, Boehringer light units (BLU); mean over the file's lines of this peptide [4]: 796 | normalised SPOT signal, Boehringer light units (BLU); mean over the file's lines of this peptide [5]: 33.3

B20: YCL014W 808-821 (peptide)
chain: EILPVKPTKKSSKK
normalised SPOT signal, Boehringer light units (BLU); mean over the file's lines of this peptide [1]: 364 | normalised SPOT signal, Boehringer light units (BLU); mean over the file's lines of this peptide [2]: 34.7 | normalised SPOT signal, Boehringer light units (BLU); mean over the file's lines of this peptide [3]: 63.9 | normalised SPOT signal, Boehringer light units (BLU); mean over the file's lines of this peptide [4]: 2720 | normalised SPOT signal, Boehringer light units (BLU); mean over the file's lines of this peptide [5]: 21.3

B22: YGL125W 158-171 (peptide)
chain: ESHPELPNKDVKLD
normalised SPOT signal, Boehringer light units (BLU); mean over the file's lines of this peptide [1]: 128 | normalised SPOT signal, Boehringer light units (BLU); mean over the file's lines of this peptide [2]: 75.4 | normalised SPOT signal, Boehringer light units (BLU); mean over the file's lines of this peptide [3]: 25.4 | normalised SPOT signal, Boehringer light units (BLU); mean over the file's lines of this peptide [4]: 139 | normalised SPOT signal, Boehringer light units (BLU); mean over the file's lines of this peptide [5]: 22.1

Further lines, results first:

normalised SPOT signal, Boehringer light units (BLU); mean over the file's lines of this peptide [1]: 0 | normalised SPOT signal, Boehringer light units (BLU); mean over the file's lines of this peptide [2]: 62400 | normalised SPOT signal, Boehringer light units (BLU); mean over the file's lines of this peptide [3]: 6410 | normalised SPOT signal, Boehringer light units (BLU); mean over the file's lines of this peptide [4]: 46300 | normalised SPOT signal, Boehringer light units (BLU); mean over the file's lines of this peptide [5]: 54.8
B5: YPR171W 203-216 (peptide)
chain: EEKPLLPTRPNKAE

normalised SPOT signal, Boehringer light units (BLU); mean over the file's lines of this peptide [1]: 70.5 | normalised SPOT signal, Boehringer light units (BLU); mean over the file's lines of this peptide [2]: 2010 | normalised SPOT signal, Boehringer light units (BLU); mean over the file's lines of this peptide [3]: 31.9 | normalised SPOT signal, Boehringer light units (BLU); mean over the file's lines of this peptide [4]: 3400 | normalised SPOT signal, Boehringer light units (BLU); mean over the file's lines of this peptide [5]: 54.9
B7: YOR066W 225-238 (peptide)
chain: EAPPAKPSRSDIID

normalised SPOT signal, Boehringer light units (BLU); mean over the file's lines of this peptide [1]: 89.1 | normalised SPOT signal, Boehringer light units (BLU); mean over the file's lines of this peptide [2]: 91.1 | normalised SPOT signal, Boehringer light units (BLU); mean over the file's lines of this peptide [3]: 38.5 | normalised SPOT signal, Boehringer light units (BLU); mean over the file's lines of this peptide [4]: 5.2 | normalised SPOT signal, Boehringer light units (BLU); mean over the file's lines of this peptide [5]: 11
B9: YLR113W 212-225 (peptide)
chain: EGKPLFPGKDHVHQ

normalised SPOT signal, Boehringer light units (BLU); mean over the file's lines of this peptide [1]: 394 | normalised SPOT signal, Boehringer light units (BLU); mean over the file's lines of this peptide [2]: 1840 | normalised SPOT signal, Boehringer light units (BLU); mean over the file's lines of this peptide [3]: 72.6 | normalised SPOT signal, Boehringer light units (BLU); mean over the file's lines of this peptide [4]: 5120 | normalised SPOT signal, Boehringer light units (BLU); mean over the file's lines of this peptide [5]: 161
B12: YPR171W 144-157 (peptide)
chain: EKGPRMPSRGRPRP

normalised SPOT signal, Boehringer light units (BLU); mean over the file's lines of this peptide [1]: 84 | normalised SPOT signal, Boehringer light units (BLU); mean over the file's lines of this peptide [2]: 24.5 | normalised SPOT signal, Boehringer light units (BLU); mean over the file's lines of this peptide [3]: 5.7 | normalised SPOT signal, Boehringer light units (BLU); mean over the file's lines of this peptide [4]: 44.3 | normalised SPOT signal, Boehringer light units (BLU); mean over the file's lines of this peptide [5]: 17.6
B13: YLR238W 11-24 (peptide)
chain: EEHPSSPGKKQITY

normalised SPOT signal, Boehringer light units (BLU); mean over the file's lines of this peptide [1]: 26.8 | normalised SPOT signal, Boehringer light units (BLU); mean over the file's lines of this peptide [2]: 208 | normalised SPOT signal, Boehringer light units (BLU); mean over the file's lines of this peptide [3]: 41.4 | normalised SPOT signal, Boehringer light units (BLU); mean over the file's lines of this peptide [4]: 667 | normalised SPOT signal, Boehringer light units (BLU); mean over the file's lines of this peptide [5]: 17.5
B14: YMR296C 278-291 (peptide)
chain: EKLPAIPRKFIVTE

normalised SPOT signal, Boehringer light units (BLU); mean over the file's lines of this peptide [1]: 98 | normalised SPOT signal, Boehringer light units (BLU); mean over the file's lines of this peptide [2]: 53.3 | normalised SPOT signal, Boehringer light units (BLU); mean over the file's lines of this peptide [3]: 16.4 | normalised SPOT signal, Boehringer light units (BLU); mean over the file's lines of this peptide [4]: 26.8 | normalised SPOT signal, Boehringer light units (BLU); mean over the file's lines of this peptide [5]: 39.5
B15: YNL025C 151-164 (peptide)
chain: EFIPPDPTKVTEFE

normalised SPOT signal, Boehringer light units (BLU); mean over the file's lines of this peptide [1]: 56.5 | normalised SPOT signal, Boehringer light units (BLU); mean over the file's lines of this peptide [2]: 139 | normalised SPOT signal, Boehringer light units (BLU); mean over the file's lines of this peptide [3]: 32.9 | normalised SPOT signal, Boehringer light units (BLU); mean over the file's lines of this peptide [4]: 7910 | normalised SPOT signal, Boehringer light units (BLU); mean over the file's lines of this peptide [5]: 83.5
B16: YKR024C 336-349 (peptide)
chain: EKFPKLPHKLVHML

normalised SPOT signal, Boehringer light units (BLU); mean over the file's lines of this peptide [1]: 59.6 | normalised SPOT signal, Boehringer light units (BLU); mean over the file's lines of this peptide [2]: 51.3 | normalised SPOT signal, Boehringer light units (BLU); mean over the file's lines of this peptide [3]: 51.1 | normalised SPOT signal, Boehringer light units (BLU); mean over the file's lines of this peptide [4]: 290 | normalised SPOT signal, Boehringer light units (BLU); mean over the file's lines of this peptide [5]: 40.1
B19: YLL021W 583-596 (peptide)
chain: EESPVKPLKITQKA

normalised SPOT signal, Boehringer light units (BLU); mean over the file's lines of this peptide [1]: 619 | normalised SPOT signal, Boehringer light units (BLU); mean over the file's lines of this peptide [2]: 72200 | normalised SPOT signal, Boehringer light units (BLU); mean over the file's lines of this peptide [3]: 26300 | normalised SPOT signal, Boehringer light units (BLU); mean over the file's lines of this peptide [4]: 31200 | normalised SPOT signal, Boehringer light units (BLU); mean over the file's lines of this peptide [5]: 53.3
B21: YOR042W 80-93 (peptide)
chain: EEHPPLPARRKSEE
